From publication PMC6929975, “A supramolecular protein chaperone for vaccine delivery” (Theranostics, 2020)

Tested on: bone marrow-derived dendritic cells (BMDCs)
Test: Antigen uptake by BMDCs (confocal microscopy; OVA-Rhod)
Assay type: cell-based
Details: 1 h, 37 °C, OVA-Rhod 2.5 µg mL^-1 (soluble) or Comp./OVA = 10:1 w/w
Description: Figure 5 Vaccine promoting antigen uptake by BMDCs. […] Magnification: 63 ×. (B) The percentage of OVA-Rhod-positive cells is shown. (C) Total fluorescence intensity of OVA-Rhod was measured; total fluorescence intensity (FI) = % of positive cells × mean fluorescence intensity. The bars shown represent the mean ± SE, and differences among groups were determined using one-way ANOVA. The asterisks indicate the significance of differences between the Vac-1 group and the indicated group. *: p < 0.05, **: p < 0.01.

B1: RBITC-OVA: OVA labelled with Rhodamine b isothiocyanate, soluble (protein, UniProt P01012 2-386, looked up)
Ovalbumin: GSIGAASMEFCFDVFKELKVHHANENIFYCPIAIMSALAMVYLGAKDSTRTQINKVVRFDKLPGFGDSIEAQCGTSVNVHSSLRDILNQITKPNDVYSFSLASRLYAEERYPILPEYLQCVKELYRGGLEPINFQTAADQARELINSWVESQTNGIIRNVLQPSSVDSQTAMVLVNAIVFKGLWEKAFKDEDTQAMPFRVTEQESKPVQMMYQIGLFRVASMASEKMKILELPFASGTMSMLVLLPDEVSGLEQLESIINFEKLTEWTSSNVMEERKIKVYLPRMKMEEKYNLTSVLMAMGITDVFSSSANLSGISSAESLKISQAVHAAHAEINEAGREVVGSAEAGVDAASVSEEFRADHPFLFCIKHIATNAVLFFGRCVSP
modifications: rhodamine B isothiocyanate label
notes: OVA labelled with Rhodamine b isothiocyanate, soluble
uptake of RBITC-OVA by DCs: poor uptake
